# Test results as given in patent US10227388B2, “Peptides and combination of peptides for use in immunotherapy against non-small cell lung cancer and other cancers” (immatics biotechnologies GmbH, priority 2015, dated 2019).
# Biological target: HLA-A*02:01 (Homo sapiens, UniProt P04439, D140Y/D185E/D98H/E176V/E277Q/G131W/G231S/I119V/I121R/I166T/I218V/L300P/L318F/N151K/N90K/P208A/P217A/Q86G/Q94H/R138H/R169H/T345S)
# Test: MHC binding assay (UV-ligand exchange, ELISA, peptide exchange yield)
# Settings: binding of HLA-class I restricted peptides to HLA-A*02:01
# Method in brief: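 Exchange yield was quantified as stabilized β2m-containing complex: monomers diluted 100-fold bound to streptavidin-coated wells, probed with HRP-conjugated anti-β2m, read at 450 nm after TMB. Complexes had been generated by UV cleavage of a photolabile ligand and replacement with the candidate peptide.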
row,Substance,"Peptide exchange (MHC class I binding score, peptide exchange yield)"
1,447 (QLVPALAKV; listed as Homo sapiens) [compound 447],″++″ (≥20% = ++)
2,448 (NLLETKLQL; listed as Homo sapiens) [compound 448],″+++″ (≥50% = +++)
3,449 (KLAEGLDIQL; listed as Homo sapiens) [compound 449],″+++″ (≥50% = +++)
4,450 (FMIDASVHPTL; listed as Homo sapiens) [compound 450],″+++″ (≥50% = +++)
5,451 (LLLLDTVTMQV; listed as Homo sapiens) [compound 451],″++″ (≥20% = ++)
6,452 (ILLEHGADPNL; listed as Homo sapiens) [compound 452],″+++″ (≥50% = +++)
7,453 (KLLEATSAV; listed as Homo sapiens) [compound 453],″++″ (≥20% = ++)
8,454 (KLPPPPPQA; listed as Homo sapiens) [compound 454],″+++″ (≥50% = +++)
9,455 (SLLKEPQKVQL; listed as Homo sapiens) [compound 455],″++″ (≥20% = ++)
10,456 (LLIGHLERV; listed as Homo sapiens) [compound 456],″+++″ (≥50% = +++)
11,457 (SLLPGNLVEKV; listed as Homo sapiens) [compound 457],″+++″ (≥50% = +++)
12,458 (SLIDKLYNI; listed as Homo sapiens) [compound 458],″++″ (≥20% = ++)
13,459 (ALITEVVRL; listed as Homo sapiens) [compound 459],″++″ (≥20% = ++)
14,461 (VMFRTPLASV; listed as Homo sapiens) [compound 461],″++″ (≥20% = ++)
15,462 (KLAKQPETV; listed as Homo sapiens) [compound 462],″+++″ (≥50% = +++)
16,463 (SLVESHLSDQLTL; listed as Homo sapiens) [compound 463],″+++″ (≥50% = +++)
17,464 (ALNDCIYSV; listed as Homo sapiens) [compound 464],″+++″ (≥50% = +++)
18,465 (QLCDLNAEL; listed as Homo sapiens) [compound 465],″+++″ (≥50% = +++)
19,466 (VLIANLEKL; listed as Homo sapiens) [compound 466],″++++″ (≥75% = ++++)
20,467 (FLAKDFNFL; listed as Homo sapiens) [compound 467],″+++″ (≥50% = +++)

row,Substance,"Peptide exchange (MHC class I binding score, peptide exchange yield)"
1,468 (YLRSVGDGETV; listed as Homo sapiens) [compound 468],″+++″ (≥50% = +++)
2,469 (YLASDEITTV; listed as Homo sapiens) [compound 469],″+++″ (≥50% = +++)
3,471 (YLYNNMIAKI; listed as Homo sapiens) [compound 471],″+++″ (≥50% = +++)
4,472 (KLLEVSDDPQV; listed as Homo sapiens) [compound 472],″+++″ (≥50% = +++)
5,473 (AMATESILHFA; listed as Homo sapiens) [compound 473],″+++″ (≥50% = +++)
6,474 (YLDPALELGPRNV; listed as Homo sapiens) [compound 474],″+++″ (≥50% = +++)
7,475 (LLLNEEALAQI; listed as Homo sapiens) [compound 475],″+++″ (≥50% = +++)
8,476 (ALMERTGYSMV; listed as Homo sapiens) [compound 476],″+++″ (≥50% = +++)
9,477 (ALLPASGQIAL; listed as Homo sapiens) [compound 477],″+++″ (≥50% = +++)
10,478 (YLLHEKLNL; listed as Homo sapiens) [compound 478],″+++″ (≥50% = +++)
11,479 (SLFGNSGILENV; listed as Homo sapiens) [compound 479],″+++″ (≥50% = +++)
12,480 (ALLEDSCHYL; listed as Homo sapiens) [compound 480],″+++″ (≥50% = +++)
13,481 (GLIEDYEALL; listed as Homo sapiens) [compound 481],″+++″ (≥50% = +++)
14,484 (SLIEKVTQL; listed as Homo sapiens) [compound 484],″+++″ (≥50% = +++)
15,485 (NVPDSFNEV; listed as Homo sapiens) [compound 485],″+++″ (≥50% = +++)
16,486 (AVMESIQGV; listed as Homo sapiens) [compound 486],″+++″ (≥50% = +++)
17,487 (LLINSVFHV; listed as Homo sapiens) [compound 487],″+++″ (≥50% = +++)
18,488 (FLAEDPKVTL; listed as Homo sapiens) [compound 488],″+++″ (≥50% = +++)
19,490 (FLLQHVQEL; listed as Homo sapiens) [compound 490],″+++″ (≥50% = +++)
20,491 (GLNDRSDAV; listed as Homo sapiens) [compound 491],″++″ (≥20% = ++)

# Next, values leading:
row,"Peptide exchange (MHC class I binding score, peptide exchange yield)",Substance
1,″+++″ (≥50% = +++),492 (SLFDGFADGLGV; listed as Homo sapiens) [compound 492]
2,″+++″ (≥50% = +++),493 (GLLGEKTQDLIGV; listed as Homo sapiens) [compound 493]
3,″++″ (≥20% = ++),494 (ALQPEPIKV; listed as Homo sapiens) [compound 494]
4,″+++″ (≥50% = +++),495 (FIFSEKPVFV; listed as Homo sapiens) [compound 495]
5,″+++″ (≥50% = +++),496 (FLVEKQPPQV; listed as Homo sapiens) [compound 496]
6,″+++″ (≥50% = +++),497 (GLLEKLTAI; listed as Homo sapiens) [compound 497]
7,″+++″ (≥50% = +++),498 (KLWTGGLDNTV; listed as Homo sapiens) [compound 498]
8,″+++″ (≥50% = +++),500 (SLMEDQVLQL; listed as Homo sapiens) [compound 500]
9,″+++″ (≥50% = +++),501 (LLDPNVKSIFV; listed as Homo sapiens) [compound 501]
10,″+++″ (≥50% = +++),502 (RLLAQVPGL; listed as Homo sapiens) [compound 502]
11,″+++″ (≥50% = +++),503 (SLNHFTHSV; listed as Homo sapiens) [compound 503]
12,″++″ (≥20% = ++),504 (GLSDGNPSL; listed as Homo sapiens) [compound 504]
13,″++″ (≥20% = ++),505 (SLAPGDVVRQV; listed as Homo sapiens) [compound 505]
14,″+++″ (≥50% = +++),506 (KLLGKVETA; listed as Homo sapiens) [compound 506]
15,″+++″ (≥50% = +++),507 (KLIDDQDISISL; listed as Homo sapiens) [compound 507]
16,″+++″ (≥50% = +++),508 (ILAQEQLVVGV; listed as Homo sapiens) [compound 508]
17,″+++″ (≥50% = +++),509 (FLFDTKPLIV; listed as Homo sapiens) [compound 509]
18,″++″ (≥20% = ++),510 (KLYSVVSQL; listed as Homo sapiens) [compound 510]
19,″+++″ (≥50% = +++),512 (SLSEIVPCL; listed as Homo sapiens) [compound 512]
20,″++″ (≥20% = ++),513 (SLWPSPEQL; listed as Homo sapiens) [compound 513]
21,″+++″ (≥50% = +++),514 (ILVDWLVQV; listed as Homo sapiens) [compound 514]
22,″+++″ (≥50% = +++),515 (LLQELVLFL; listed as Homo sapiens) [compound 515]
23,″++″ (≥20% = ++),516 (AVGPASILKEV; listed as Homo sapiens) [compound 516]
24,″+++″ (≥50% = +++),517 (LLMPIPEGLTL; listed as Homo sapiens) [compound 517]
25,″+++″ (≥50% = +++),518 (KLNAEVACV; listed as Homo sapiens) [compound 518]
26,″+++″ (≥50% = +++),519 (GLLHLTLLL; listed as Homo sapiens) [compound 519]
